{
  "source": "paper PMC8144435",
  "target": "Mayaro virus (MAYV) capsid (C) protein, strain IQT4235 (Mayaro virus (strain IQT4235))",
  "assay": "cryo-EM structure; purified mature infectious MAYV virions (5x10^10 PFU/mL, from Vero CCL81 cells) vitrified on Quantifoil R2/2 grids; 300 kV Titan Krios, single particle analysis with icosahedral symmetry, global resolution 4.4 Å; atomic model from a homology model on CHIKV (PDB 6NK5) refined into the map",
  "note": "Values joined by “and” are separate entries in the source; they are usually repeats but may differ in a detail not shown here. Identical values can stand only once.",
  "data": [
    {"substance": "Mayaro virus (MAYV) capsid (C) protein, strain IQT4235 (natural protein)", "values": [
      {"measurement": "stoichiometry N", "result": "6 and 5"}
    ]}
  ]
}
